Here are results for one protein from PMC6586891, “On the molecular and cellular effects of omeprazole to further support its effectiveness as an antigiardial drug” (Scientific Reports, 2019).

Substrate in the series: O=CC(O)COP(=O)(O)O
Put plainly: Michaelis-Menten kinetics of purified enzyme (Km), coupled alpha-GDH/NADH assay. The series is classed as biochemical, Giardia duodenalis.

B1: Giardia lamblia triosephosphate isomerase (GlTIM WT) (Giardia duodenalis) (protein)
chain: MPARRPFIGGNFKCNGSLDFIKSHVAAIAAHKIPDSVDVVIAPSAVHLSTAIAANTSKQLRIAAQNVYLEGNGAWTGETSVEMLQDMGLKHVIVGHSERRRIMGETDEQSAKKAKRALEKGMTVIFCVGETLDERKANRTMEVNIAQLEALGKELGESKMLWKEVVIAYEPVWSIGTGVVATPEQAEEVHVGLRKWFAEKVCAEGAQHIRIIYGGSANGSNCEKLGQCPNIDGFLVGGASLKPEFMTMIDILTKTRT
notes: recombinant His-tag/TEV GlTIM WT
Consider B1, for which the Km came out at 780 ± 60 µM, the kcat worked out at 7670 ± 267 s⁻¹ and the kcat/Km was 9.83e+06 M⁻¹ s⁻¹.
